From US9187525B2, “Methods of treating ophthalmic diseases using NPR-B agonists” (Shire Orphan Therapies GmbH, dated 2015)
Numbered stars: 1 amine (or outer) side, 2 acyl side, 3 side chain; on linkers, the order of the positions; unused ones are H or OH. Square brackets hold non-standard residues; d marks the D form. Ends that are not written are not given here. * marks the point of attachment. Ebe = (R)-2-amino-3-(methylsulfanyl)propanoic acid, CSC[C@H](N[*:1])C(=O)[*:2]; Sni = (S)-nipecotic acid, O=C([C@H]1CCCN([*:1])C1)[*:2]; Phe(3-Cl) = N[C@@H](Cc1cccc(Cl)c1)C(=O)O; Pro(4S-NH2) = N[C@@H]1CN[C@H](C(=O)O)C1; cisHyp = O=C(O)[C@@H]1C[C@H](O)CN1; Hyp = O=C(O)[C@@H]1C[C@@H](O)CN1; NMeF = CN[C@@H](Cc1ccccc1)C(=O)O; tBuAla = CC(C)(C)C[C@H](N)C(=O)O; Cha = N[C@@H](CC1CCCCC1)C(=O)O; NMeL = CN[C@@H](CC(C)C)C(=O)O; d(αMeP) = C[C@]1(C(=O)O)CCCN1; hLeu = CC(C)CC[C@H](N)C(=O)O; Nle = CCCC[C@H](N)C(=O)O; Octanoyl = CCCCCCCC(=O)*; Nva = CCC[C@H](N)C(=O)O; dAze = O=C(O)[C@H]1CCN1; Hexanoyl = CCCCCC(=O)*; Ac3c = NC1(C(=O)O)CC1; Aib = CC(C)(N)C(=O)O; Occ = octanoic acid; Sar = CNCC(=O)O

T1: natriuretic peptide receptor-B (human)
T1 chain: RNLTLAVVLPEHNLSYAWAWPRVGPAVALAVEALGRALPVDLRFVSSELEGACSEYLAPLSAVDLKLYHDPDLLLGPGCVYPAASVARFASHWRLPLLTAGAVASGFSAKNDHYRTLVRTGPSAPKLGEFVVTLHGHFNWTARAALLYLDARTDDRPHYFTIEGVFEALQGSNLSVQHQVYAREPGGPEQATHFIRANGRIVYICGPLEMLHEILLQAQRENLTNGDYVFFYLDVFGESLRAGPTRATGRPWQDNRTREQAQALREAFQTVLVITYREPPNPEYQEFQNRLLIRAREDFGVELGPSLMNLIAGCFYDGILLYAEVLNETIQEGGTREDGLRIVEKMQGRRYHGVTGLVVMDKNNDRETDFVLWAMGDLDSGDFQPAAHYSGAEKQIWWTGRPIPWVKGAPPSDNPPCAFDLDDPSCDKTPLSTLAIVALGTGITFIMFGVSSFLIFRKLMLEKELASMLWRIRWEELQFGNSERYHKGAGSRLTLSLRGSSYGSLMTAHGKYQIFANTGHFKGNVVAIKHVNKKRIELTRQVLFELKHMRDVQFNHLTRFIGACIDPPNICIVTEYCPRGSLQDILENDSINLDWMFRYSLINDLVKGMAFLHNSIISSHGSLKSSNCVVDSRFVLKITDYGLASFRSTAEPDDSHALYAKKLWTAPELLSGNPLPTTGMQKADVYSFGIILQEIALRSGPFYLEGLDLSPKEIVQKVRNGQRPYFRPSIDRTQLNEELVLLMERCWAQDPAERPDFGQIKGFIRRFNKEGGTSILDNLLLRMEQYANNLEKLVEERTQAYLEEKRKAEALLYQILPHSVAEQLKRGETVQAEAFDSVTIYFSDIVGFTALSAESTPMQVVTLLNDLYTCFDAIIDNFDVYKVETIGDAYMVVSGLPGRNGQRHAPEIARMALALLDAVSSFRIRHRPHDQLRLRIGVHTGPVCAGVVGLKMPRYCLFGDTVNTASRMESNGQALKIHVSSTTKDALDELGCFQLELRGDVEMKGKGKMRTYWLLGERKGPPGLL

B1: JAL-0894 (peptide)
peptide: Octanoyl-AFGLPIDRI-NH2
modifications: not fully specified (some residues); printed as Occ-ala-Phe-Gly-Leu-Pro-Ile-Asp-Arg-Ile-NH2
B2: JAL-0895 (peptide)
peptide: Octanoyl-AFGLP[NMeL]DRI-NH2
modifications: not fully specified (some residues); printed as Occ-ala-Phe-Gly-Leu-Pro-Nml-Asp-Arg-Ile-NH2
B3: JAL-0896 (peptide)
peptide: Octanoyl-AFGLP[tBuAla]DRI-NH2
modifications: not fully specified (some residues); printed as Occ-ala-Phe-Gly-Leu-Pro-Npg-Asp-Arg-Ile-NH2
B4: JAL-0898 (peptide)
peptide: Octanoyl-AFGL[Hyp]LDRI-NH2
modifications: not fully specified (some residues); printed as Occ-ala-Phe-Gly-Leu-Hyp-Leu-Asp-Arg-Ile-NH2
B5: JAL-0903 (peptide)
peptide: Octanoyl-AFG[tBuAla]PLDRI-NH2
modifications: not fully specified (some residues); printed as Occ-ala-Phe-Gly-Npg-Pro-Leu-Asp-Arg-Ile-NH2
B6: JAL-0906 (peptide)
peptide: [Occ]AXGLPLDRI-NH2
modifications: not fully specified (residues 2, 3); printed as Occ-ala-Nmf-Gly-Leu-Pro-Leu-Asp-Arg-Ile-NH2
B7: JAL-0921 (peptide)
peptide: [Occ]AFGLPLD[Nmr]I-NH2
modifications: not fully specified (residue 2); printed as Occ-ala-Phe-Gly-Leu-Pro-Leu-Asp-Nmr-Ile-NH2
B8: JAL-0924 (peptide)
peptide: [Occ]AFGLPLNRI-NH2
modifications: not fully specified (residue 2); printed as Occ-ala-Phe-Gly-Leu-Pro-Leu-Asn-Arg-Ile-NH2
B9: JAL-0926 (peptide)
peptide: [Occ]AFGLPL[Nva]RI-NH2
modifications: not fully specified (residue 2); printed as Occ-ala-Phe-Gly-Leu-Pro-Leu-Nva-Arg-Ile-NH2
B10: JAL-0927 (peptide)
peptide: [Occ]AFGLPLVRI-NH2
modifications: not fully specified (residue 2); printed as Occ-ala-Phe-Gly-Leu-Pro-Leu-Val-Arg-Ile-NH2
B11: JAL-0929 (peptide)
peptide: [Occ]AFGLPLTRI-NH2
modifications: not fully specified (residue 2); printed as Occ-ala-Phe-Gly-Leu-Pro-Leu-Thr-Arg-Ile-NH2
B12: JAL-0940 (peptide)
peptide: [Occ]AFG[Cha]PLDRI-NH2
modifications: not fully specified (residue 2); printed as Occ-ala-Phe-Gly-Cha-Pro-Leu-Asp-Arg-Ile-NH2
B13: JAL-0942 (peptide)
peptide: [Occ]AFG[Nle]PLDRI-NH2
modifications: not fully specified (residue 2); printed as Occ-ala-Phe-Gly-Nle-Pro-Leu-Asp-Arg-Ile-NH2
B14: JAL-0943 (peptide)
peptide: [Occ]AF[Aib]LPLDRI-NH2
modifications: not fully specified (residue 2); printed as Occ-ala-Phe-Aib-Leu-Pro-Leu-Asp-Arg-Ile-NH2
B15: JAL-0944 (peptide)
peptide: [Occ][dA]F[dA]LPLDRI-NH2
B16: JAL-0945 (peptide)
peptide: [Occ][dA]F[Ac3c]LPLDRI-NH2
B17: JAL-0946 (peptide)
peptide: [Occ][dA][Phe(3-Cl)]GLPLDRI-NH2
B18: JAL-0950 (peptide)
peptide: [Occ][Sar]FGLPLDRI-NH2
B19: JAL-0951 (peptide)
peptide: [Occ]GFGLPLDRI-NH2
B20: JAL-0953 (peptide)
peptide: [Occ][dAze]FGLPLDRI-NH2
B21: JAL-0954 (peptide)
peptide: [Occ][dA][NMeF]GLP[NMeL]DRI-NH2
B22: JAL-0955_01 (peptide)
peptide: [Occ][dP]FGLP[NMeL]DRI-NH2
B23: JAL-0956 (peptide)
peptide: [Occ][Sni]FGLP[NMeL]DRI-NH2
B24: JAL-0957 (peptide)
peptide: [Occ][dP][NMeF]GLP[NMeL]DRI-NH2
B25: JAL-0958_01 (peptide)
peptide: [Occ][Sni][NMeF]GLP[NMeL]DRI-NH2
B26: JAL-0959 (peptide)
peptide: [Occ][dA]FGLP[hLeu]DRI-NH2
B27: JAL-0962 (peptide)
peptide: [Occ][dA]FGL[d(αMeP)]LDRI-NH2
B28: JAL-0964 (peptide)
peptide: [Occ][dA]FGL[cisHyp]LDRI-NH2
B29: JAL-0966 (peptide)
peptide: [Occ][dP][NMeF]GLPLDRI-NH2
B30: JAL-0967_01 (peptide)
peptide: [Occ][Sni][NMeF]GLPLDRI-NH2
B31: JAL-0533 (peptide)
peptide: Hexanoyl-[Ebe][dP]FGLPIDRIS[Ebe]-NH2
B32: JAL-0974 (peptide)
peptide: [Occ]AFGL[Pro(4S-NH2)]LDRI-NH2
modifications: not fully specified (residue 2); printed as Occ-ala-Phe-Gly-Leu-Apr-Leu-Asp-Arg-Ile-NH2

Target: T1, natriuretic peptide receptor-B
Test: cell-based or functional assay

**Q.** Which “EC50 group, cGMP in GTM-3 cells” value does the source give for B1 here?
**A.** Its value is at most 15 µM.

**Q.** B2 was tested. Which “EC50 group, cGMP in GTM-3 cells” value did it give?
**A.** Its value is at most 5 µM.

**Q.** Which “EC50 group, cGMP in GTM-3 cells” value does the source give for B3 here?
**A.** Its value is at most 15 µM.

**Q.** How did the “EC50 group, cGMP in GTM-3 cells” value turn out when B4 was run?
**A.** The value was at most 5 µM.

**Q.** B5 was tested. Which “EC50 group, cGMP in GTM-3 cells” value did it give?
**A.** Its value is at most 15 µM.

**Q.** B6 was tested. Which “EC50 group, cGMP in GTM-3 cells” value did it give?
**A.** Its value is at most 15 µM.

**Q.** With B7 as the binder, how does the “EC50 group, cGMP in GTM-3 cells” value read?
**A.** Its value is at most 15 µM.

**Q.** Which “EC50 group, cGMP in GTM-3 cells” value does the source give for B8 here?
**A.** The value was at most 15 µM.

**Q.** B9 was tested. Which “EC50 group, cGMP in GTM-3 cells” value did it give?
**A.** The value was at most 15 µM.

**Q.** Which “EC50 group, cGMP in GTM-3 cells” value does the source give for B10 here?
**A.** Its value is at most 15 µM.

**Q.** B11 was tested. Which “EC50 group, cGMP in GTM-3 cells” value did it give?
**A.** Its value is at most 15 µM.

**Q.** How did the “EC50 group, cGMP in GTM-3 cells” value turn out when B12 was run?
**A.** The value was at most 15 µM.

**Q.** How did the “EC50 group, cGMP in GTM-3 cells” value turn out when B13 was run?
**A.** The value was at most 15 µM.

**Q.** With B14 as the binder, how does the “EC50 group, cGMP in GTM-3 cells” value read?
**A.** Its value is at most 15 µM.

**Q.** How did the “EC50 group, cGMP in GTM-3 cells” value turn out when B15 was run?
**A.** Its value is at most 15 µM.

**Q.** B16 was tested. Which “EC50 group, cGMP in GTM-3 cells” value did it give?
**A.** Its value is at most 15 µM.

**Q.** With B17 as the binder, how does the “EC50 group, cGMP in GTM-3 cells” value read?
**A.** Its value is at most 15 µM.

**Q.** B18 was tested. Which “EC50 group, cGMP in GTM-3 cells” value did it give?
**A.** Its value is at most 15 µM.

**Q.** B19 was tested. Which “EC50 group, cGMP in GTM-3 cells” value did it give?
**A.** Its value is at most 15 µM.

**Q.** How did the “EC50 group, cGMP in GTM-3 cells” value turn out when B20 was run?
**A.** Its value is at most 5 µM.

**Q.** For B21, which “EC50 group, cGMP in GTM-3 cells” value is on record?
**A.** The value was at most 5 µM.

**Q.** With B22 as the binder, how does the “EC50 group, cGMP in GTM-3 cells” value read?
**A.** The value was at most 5 µM.

**Q.** For B23, which “EC50 group, cGMP in GTM-3 cells” value is on record?
**A.** Its value is at most 5 µM.

**Q.** For B24, which “EC50 group, cGMP in GTM-3 cells” value is on record?
**A.** Its value is at most 15 µM.

**Q.** How did the “EC50 group, cGMP in GTM-3 cells” value turn out when B25 was run?
**A.** Its value is at most 5 µM.

**Q.** How did the “EC50 group, cGMP in GTM-3 cells” value turn out when B26 was run?
**A.** The value was at most 15 µM.

**Q.** With B27 as the binder, how does the “EC50 group, cGMP in GTM-3 cells” value read?
**A.** Its value is at most 15 µM.

**Q.** Which “EC50 group, cGMP in GTM-3 cells” value does the source give for B28 here?
**A.** Its value is at most 15 µM.

**Q.** Which “EC50 group, cGMP in GTM-3 cells” value does the source give for B29 here?
**A.** Its value is at most 15 µM.

**Q.** With B30 as the binder, how does the “EC50 group, cGMP in GTM-3 cells” value read?
**A.** Its value is at most 15 µM.

**Q.** B31 was tested. Which “EC50 group, cGMP in GTM-3 cells” value did it give?
**A.** Its value is at most 15 µM.

**Q.** B32 was tested. Which “EC50 group, cGMP in GTM-3 cells” value did it give?
**A.** The value was at most 5 µM.
